In patent US20040248807A1 (OREGON HEALTH AND SCIENCE UNIVERSITY, published 2004):
Square brackets hold non-standard residues; d marks the D form. Ends that are not written are not given here. pY = N[C@@H](Cc1ccc(OP(=O)(O)O)cc1)C(=O)O

Target: Human α-thrombin (human, UniProt P00734 328-622)
Test: fluorescence polarization competition against fluoresceinated γ′408-427 phosphorylated peptide, 2 µM α-thrombin

- binding result: no binding
Binder: E[pY]DSL[pY]PEDDL [γ′ amino-terminal deletion peptide 417-427, phosphotyrosine at 418 and 422]
